Source: article PMC5505151, “A proteomic analysis of LRRK2 binding partners reveals interactions with multiple signaling components of the WNT/PCP pathway” (Molecular Neurodegeneration, 2017)

Target: LRRK2 (wild type, transiently overexpressed; tagged construct not told for the experiment) (UniProt Q5S007 1-2527)
Test: cell-based or functional assay

Sequence of LRRK2 (wild type, transiently overexpressed; tagged construct not told for the experiment) (Q5S007 whole entry): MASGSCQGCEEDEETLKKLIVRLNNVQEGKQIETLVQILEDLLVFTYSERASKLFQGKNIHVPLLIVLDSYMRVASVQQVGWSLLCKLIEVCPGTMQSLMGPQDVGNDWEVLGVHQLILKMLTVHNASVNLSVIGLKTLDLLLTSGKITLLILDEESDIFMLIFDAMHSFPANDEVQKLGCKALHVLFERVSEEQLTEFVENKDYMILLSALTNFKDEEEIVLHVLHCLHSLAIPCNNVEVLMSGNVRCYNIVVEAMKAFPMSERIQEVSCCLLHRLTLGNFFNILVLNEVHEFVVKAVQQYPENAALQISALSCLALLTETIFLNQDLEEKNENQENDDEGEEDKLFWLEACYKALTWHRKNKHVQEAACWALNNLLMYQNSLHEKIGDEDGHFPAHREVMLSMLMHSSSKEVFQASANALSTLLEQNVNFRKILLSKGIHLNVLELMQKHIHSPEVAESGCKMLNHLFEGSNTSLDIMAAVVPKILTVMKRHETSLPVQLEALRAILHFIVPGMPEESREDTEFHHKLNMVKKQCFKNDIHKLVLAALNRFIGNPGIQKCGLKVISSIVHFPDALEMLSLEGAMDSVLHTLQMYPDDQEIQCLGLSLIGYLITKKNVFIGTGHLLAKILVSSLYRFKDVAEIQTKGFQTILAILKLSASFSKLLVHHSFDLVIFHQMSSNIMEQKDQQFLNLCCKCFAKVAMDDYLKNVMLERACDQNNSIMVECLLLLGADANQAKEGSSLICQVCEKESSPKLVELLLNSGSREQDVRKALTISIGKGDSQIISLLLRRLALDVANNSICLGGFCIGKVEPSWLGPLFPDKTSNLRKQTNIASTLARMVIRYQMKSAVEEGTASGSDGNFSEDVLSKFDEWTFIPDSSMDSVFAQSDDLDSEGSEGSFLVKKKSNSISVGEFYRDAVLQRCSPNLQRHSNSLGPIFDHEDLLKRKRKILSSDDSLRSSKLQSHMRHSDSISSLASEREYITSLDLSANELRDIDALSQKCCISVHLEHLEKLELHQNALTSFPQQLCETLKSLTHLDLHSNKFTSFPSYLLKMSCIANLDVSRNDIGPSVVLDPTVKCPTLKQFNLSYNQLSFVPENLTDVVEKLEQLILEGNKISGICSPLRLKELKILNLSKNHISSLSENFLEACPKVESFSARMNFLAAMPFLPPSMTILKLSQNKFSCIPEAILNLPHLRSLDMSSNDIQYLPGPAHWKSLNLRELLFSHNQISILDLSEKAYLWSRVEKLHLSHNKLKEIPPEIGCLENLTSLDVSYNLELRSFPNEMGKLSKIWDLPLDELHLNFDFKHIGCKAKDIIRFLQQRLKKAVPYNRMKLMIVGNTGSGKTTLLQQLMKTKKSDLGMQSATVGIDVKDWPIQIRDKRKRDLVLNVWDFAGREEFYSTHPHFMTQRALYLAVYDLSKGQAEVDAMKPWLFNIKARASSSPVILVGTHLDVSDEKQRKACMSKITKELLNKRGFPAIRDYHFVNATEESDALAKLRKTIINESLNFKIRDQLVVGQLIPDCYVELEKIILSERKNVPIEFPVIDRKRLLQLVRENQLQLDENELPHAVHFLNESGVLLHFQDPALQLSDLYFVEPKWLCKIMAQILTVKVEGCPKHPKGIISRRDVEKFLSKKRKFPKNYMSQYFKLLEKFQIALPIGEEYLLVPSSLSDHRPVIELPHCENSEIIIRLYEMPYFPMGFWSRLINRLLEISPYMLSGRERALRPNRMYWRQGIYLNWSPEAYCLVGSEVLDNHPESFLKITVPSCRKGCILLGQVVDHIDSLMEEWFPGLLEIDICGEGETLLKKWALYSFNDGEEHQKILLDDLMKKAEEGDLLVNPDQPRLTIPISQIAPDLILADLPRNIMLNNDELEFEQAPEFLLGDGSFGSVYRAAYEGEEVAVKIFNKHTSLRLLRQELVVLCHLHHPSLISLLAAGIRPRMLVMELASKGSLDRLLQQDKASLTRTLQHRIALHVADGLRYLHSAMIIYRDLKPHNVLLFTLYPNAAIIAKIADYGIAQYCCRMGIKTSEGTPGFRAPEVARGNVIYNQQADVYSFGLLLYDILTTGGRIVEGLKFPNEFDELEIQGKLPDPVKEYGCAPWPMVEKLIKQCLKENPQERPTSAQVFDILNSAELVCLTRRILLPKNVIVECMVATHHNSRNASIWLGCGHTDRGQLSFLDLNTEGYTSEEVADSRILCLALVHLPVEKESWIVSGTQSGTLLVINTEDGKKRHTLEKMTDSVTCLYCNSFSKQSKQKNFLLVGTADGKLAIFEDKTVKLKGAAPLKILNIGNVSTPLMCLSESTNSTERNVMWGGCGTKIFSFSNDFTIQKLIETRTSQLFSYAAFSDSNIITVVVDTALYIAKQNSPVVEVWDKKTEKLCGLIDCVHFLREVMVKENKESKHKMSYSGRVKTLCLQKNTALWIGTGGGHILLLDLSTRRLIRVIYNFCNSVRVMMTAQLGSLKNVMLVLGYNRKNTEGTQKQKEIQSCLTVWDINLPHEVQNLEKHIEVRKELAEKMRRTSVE

B1: Prickle1-ECFP (natural protein, UniProt Q3U5C7 1-832, looked up)
chain: MPLEMEPKMSKLVFGCQRSSTSDDDSGCALEEYAWVPPGLRPEQIQLYFACLPEEKVPYVNSPGEKHRIKQLLYQLPPHDNEVRYCQSLSEEEKKELQVFSAQRKKEALGRGTIKLLSRAVMHAVCEQCGLQMNGGEVAVFASRAGPGVCWHPSCFVCFTCNELLVDLIYFYQDGKIHCGRHHAELLKPRCSACDEIIFADECTEAEGRHWHMKHFCCLECETVLGGQRYIMKDGRPFCCGCFESLYAEYCETCGEHIGVDHAQMTYDGQHWHATEACFSCAQCKASLLGCPFLPKQGQIYCSKTCSLGEDIHASDSSDSAFQSARSRDSRRSVRMGRSSRSADQCRQSLLLSPALNYKFPGLSGNADDTLSRKLDDVSLASRQGAGFANEEFWKARVEQEASEDPEEWAEHEDYMTQLLLKFGDKNLFQQQSSEVDPRASEHWIPDNMVTNKPEVKPNHQGLASKKYQSDMYWAQSQDGLGDSAYGSHPGPASSRRLQELDLDHGAAGYTHDQSQWYEDSLECLSDLKPEQSIRDSMDSLALSNITGASVDGESKPRPSLYSLQNFEEIEAEDCEKMSNMGTLNSSMLHRSAESLQSLNSGLCPEKILPEEKPAHLPVLRRSKSQSRPQQVKFSDDVIDNGSYDIEIRQPPMSERTRRRAYHFEERGSRPHHHRHRRSRKSRSDNALNLVTERKYSAKDRLRLYTPDNYEKFIQNKSARELQAYMQNANLYSQYAHATSDYALQNPGMNRFLGLCGEDDDSWCSSSTSSSDSEEEGYFLGQPIPQPRPQRFTYYTDDLSSPASALPTPQFTQRTTKSKKKKGHKGKNCIIS
B1 was tested. Which “TOPFlash (WNT/β-catenin reporter) in HEK293T cells expressing DVL2, LRRK2 and PRICKLE1, fold of control (DVL2 with LRRK2 without PRICKLE1: ~130 fold)” value did it give?
Its value is about 80 fold.
